What all share (test): purified protein
What all share (details): 50 mM CHES pH 9.5, 10 mM DTT, 37 °C

Data set [1] has as its system CCOC(=O)[C@H](CCCNC(=N)N)NC(=O)c1ccccc1.
Data set [2] relates to N=C(N)NCCCC[C@H](N)C(=O)O.
Data set [3] concerns N=C(N)NCCC[C@H](N)C(=O)NO.
The test system of data set [4] is N=C(N)NOCC[C@H](N)C(=O)O.
Data set [5] concerns N=C(NO)NCCC[C@H](N)C(=O)O.

Consider “truncated PAD (peptidylarginine deiminase, 43-amino acid N-terminal deletion) (Porphyromonas gingivalis W83)”, for which the Km result in data set [1] is listed as “(18 ± 1)×10^3 µM”; in data set [2], “(4.7 ± 0.8)×10^3 µM”; in data set [3] it was “(6.9 ± 0.5)×10^3 µM”; in data set [4] it was “(6 ± 1)×10^3 µM”; in data set [5] it was “(1.5 ± 0.5)×10^3 µM”. Further, the kcat/Km in data set [1] is 0.99 M⁻¹ s⁻¹; in data set [2], 24 M⁻¹ s⁻¹; in data set [4] it was 0.93 M⁻¹ s⁻¹; in data set [5] it was 3 M⁻¹ s⁻¹. Moreover, the kcat in data set [2] was 0.11 s⁻¹; in data set [3], 0.15 s⁻¹; in data set [4], 0.0052 s⁻¹; in data set [5], 0.0046 s⁻¹.
